B1: Frizzled 6 (FZD6), wild type, expressed as V5-FZD6-mCherry and as FZD6-GFP [human] / Frizzled 6 (FZD6), wild type, expressed as V5-FZD6-mCherry and as FZD6-GFP [human] (parent)
chain 1: HSLFTCEPITVPRCMKMAYNMTFFPNLMGHYDQSIAAVEMEHFLPLANLECSPNIETFLCKAFVPTCIEQIHVVPPCRKLCEKVYSDCKKLIDTFGIRWPEELECDRLQYCDETVPVTFDPHTEFLGPQKKTEQVQRDIGFWCPRHLKTSGGQGYKFLGIDQCAPPCPNMYFKSDELEFAKSFIGTVSIFCLCATLFTFLTFLIDVRRFRYPERPIIYYSVCYSIVSLMYFIGFLLGDSTACNKADEKLELGDTVVLGSQNKACTVLFMLLYFFTMAGTVWWVILTITWFLAAGRKWSCEAIEQKAVWFHAVAWGTPGFLTVMLLAMNKVEGDNISGVCFVGLYDLDASRYFVLLPLCLCVFVGLSLLLAGIISLNHVRQVIQHDGRNQEKLKKFMIRIGVFSGLYLVPLVTLLGCYVYEQVNRITWEITWVSDHCRQYHIPCPYQAKAKARPELALFMIKYLMTLIVGISAVFWVGSKKTCTEWAGFFKRNRKRDPISESRRVLQESCEFFLKHNSKVKHKKKHYKPSSHKLKVISKSMGTSTGATANHGTSAVAITSHDYLGQETLTEIQTSPETSMREVKADGASTPRLREQDCGEPASPAASISRLSGEQVDGKGQAGSVSESARSEGRISPKSDITDTGLAQSNNLQVPSSSEPSSLKGSTSLLVHPVSGVRKEQGGGCHSDT
chain 2: B1 chain 1

Variants of: B1
Experiment: dcFRAP
Conditions: with Frizzled 6 (FZD6), GFP channel (FZD6-GFP dimer mutant), without CL (before biotin-anti-V5/avidin surface crosslinking of V5-FZD6-mCherry), N = 23 ROIs, read off a plot

response (% of pre-bleach)	Variant
85	chain 1 D347A R350A Y351A

Same assay, conditions: with Frizzled 6 (FZD6), GFP channel (FZD6-GFP dimer control mutant), without CL (before crosslinking of V5-FZD6-mCherry), N = 75 ROIs, read off a plot

response (% of pre-bleach)	Variant
85	chain 1 D347E R350K Y351F
